Laboratory results taken from IntAct's records for PubMed 19804756.

B1: DNA repair and telomere maintenance protein nbs1 (Schizosaccharomyces pombe (strain ATCC 38366 / 972)), O43070 (parent)
chain: MWIIEAEGDILKGKSRILFPGTYIVGRNVSDDSSHIQVISKSISKRHARFTILTPSEKDYFTGGPCEFEVKDLDTKFGTKVNEKVVGQNGDSYKEKDLKIQLGKCPFTINAYWRSMCIQFDNPEMLSQWASNLNLLGIPTGLRDSDATTHFVMNRQAGSSITVGTMYAFLKKTVIIDDSYLQYLSTVKESVIEDASLMPDALECFKNIIKNNDQFPSSPEDCINSLEGFSCAMLNTSSESHHLLELLGLRISTFMSLGDIDKELISKTDFVVLNNAVYDSEKISFPEGIFCLTIEQLWKIIIERNSRELISKEIERLKYATASNSTPQKIIQPQRHIQKNIVDDLFSVKKPLPCSPKSKRVKTLENLSIMDFVQPKQMFGKEPEGYLSNQSNNGSAQNKKSGDNSEKTKNSLKSSSKKSANTGSGQGKTKVEYVSYNSVDKGNSSPFKPLELNVVGEKKANAEVDSLPSENVQESEDDKAFEENRRLRNLGSVEYIRIMSSEKSNANSRHTSKYYSGRKNFKKFQKKASQKAPLQAFLSLSEHKKTEVFDQDDTDLEPVPRLMSKVESIPAGASSDKSGKSSISKKSSNSFKELSPKTNNDEDDEFNDLKFHF
B2: DNA endonuclease ctp1 (Schizosaccharomyces pombe (strain ATCC 38366 / 972)), O74986 (parent)
chain: MNEEEHNKSVHWSIVYRQLGNLLEQYEVEIARLKSQLVLEKKLRIQVEKELESVKTKQISSSASSKVSSNTIQELDSTTDEDEIPGSDTVDEEDPSLNAPFSEKNQSVKIPPHSPTLPVQNASAFVKPISVPLGNVKEEKFLDTNPIGAESFESSDGEMHLRARSPEDMILLRETQPLAPLDINTLGVSDNRQKKGTEKKRPFEPEFLNDDVIRGNKRKALPAYECPDCQKFYELHGPVKESSVAPTWNDENRLGGGSLPNCKHQPLVQKVGRHRKLNIPKPIPNGFWESDFVD
partner: B1 chain
B3: Nibrin (Homo sapiens), O60934 (parent)
chain: MWKLLPAAGPAGGEPYRLLTGVEYVVGRKNCAILIENDQSISRNHAVLTANFSVTNLSQTDEIPVLTLKDNSKYGTFVNEEKMQNGFSRTLKSGDGITFGVFGSKFRIEYEPLVACSSCLDVSGKTALNQAILQLGGFTVNNWTEECTHLVMVSVKVTIKTICALICGRPIVKPEYFTEFLKAVESKKQPPQIESFYPPLDEPSIGSKNVDLSGRQERKQIFKGKTFIFLNAKQHKKLSSAVVFGGGEARLITEENEEEHNFFLAPGTCVVDTGITNSQTLIPDCQKKWIQSIMDMLQRQGLRPIPEAEIGLAVIFMTTKNYCDPQGHPSTGLKTTTPGPSLSQGVSVDEKLMPSAPVNTTTYVADTESEQADTWDLSERPKEIKVSKMEQKFRMLSQDAPTVKESCKTSSNNNSMVSNTLAKMRIPNYQLSPTKLPSINKSKDRASQQQQTNSIRNYFQPSTKKRERDEENQEMSSCKSARIETSCSLLEQTQPATPSLWKNKEQHLSENEPVDTNSDNNLFTDTDLKSIVKNSASKSHAAEKLRSNKKREMDDVAIEDEVLEQLFKDTKPELEIDVKVQKQEEDVNVRKRPRMDIETNDTFSDEAVPESSKISQENEIGKKRELKEDSLWSAKEISNNDKLQDDSEMLPKKLLLTEFRSLVIKNSTSRNPSGINDDYGQLKNFKKFKKVTYPGAGKLPHIIGGSDLIAHHARKNTELEEWLRQEMEVQNQHAKEESLADDLFRYNPYLKRRR

Variants of: B1
Settings: with mdc1_human MDC1, Q14676
Target sequence in this assay (Q14676 whole entry): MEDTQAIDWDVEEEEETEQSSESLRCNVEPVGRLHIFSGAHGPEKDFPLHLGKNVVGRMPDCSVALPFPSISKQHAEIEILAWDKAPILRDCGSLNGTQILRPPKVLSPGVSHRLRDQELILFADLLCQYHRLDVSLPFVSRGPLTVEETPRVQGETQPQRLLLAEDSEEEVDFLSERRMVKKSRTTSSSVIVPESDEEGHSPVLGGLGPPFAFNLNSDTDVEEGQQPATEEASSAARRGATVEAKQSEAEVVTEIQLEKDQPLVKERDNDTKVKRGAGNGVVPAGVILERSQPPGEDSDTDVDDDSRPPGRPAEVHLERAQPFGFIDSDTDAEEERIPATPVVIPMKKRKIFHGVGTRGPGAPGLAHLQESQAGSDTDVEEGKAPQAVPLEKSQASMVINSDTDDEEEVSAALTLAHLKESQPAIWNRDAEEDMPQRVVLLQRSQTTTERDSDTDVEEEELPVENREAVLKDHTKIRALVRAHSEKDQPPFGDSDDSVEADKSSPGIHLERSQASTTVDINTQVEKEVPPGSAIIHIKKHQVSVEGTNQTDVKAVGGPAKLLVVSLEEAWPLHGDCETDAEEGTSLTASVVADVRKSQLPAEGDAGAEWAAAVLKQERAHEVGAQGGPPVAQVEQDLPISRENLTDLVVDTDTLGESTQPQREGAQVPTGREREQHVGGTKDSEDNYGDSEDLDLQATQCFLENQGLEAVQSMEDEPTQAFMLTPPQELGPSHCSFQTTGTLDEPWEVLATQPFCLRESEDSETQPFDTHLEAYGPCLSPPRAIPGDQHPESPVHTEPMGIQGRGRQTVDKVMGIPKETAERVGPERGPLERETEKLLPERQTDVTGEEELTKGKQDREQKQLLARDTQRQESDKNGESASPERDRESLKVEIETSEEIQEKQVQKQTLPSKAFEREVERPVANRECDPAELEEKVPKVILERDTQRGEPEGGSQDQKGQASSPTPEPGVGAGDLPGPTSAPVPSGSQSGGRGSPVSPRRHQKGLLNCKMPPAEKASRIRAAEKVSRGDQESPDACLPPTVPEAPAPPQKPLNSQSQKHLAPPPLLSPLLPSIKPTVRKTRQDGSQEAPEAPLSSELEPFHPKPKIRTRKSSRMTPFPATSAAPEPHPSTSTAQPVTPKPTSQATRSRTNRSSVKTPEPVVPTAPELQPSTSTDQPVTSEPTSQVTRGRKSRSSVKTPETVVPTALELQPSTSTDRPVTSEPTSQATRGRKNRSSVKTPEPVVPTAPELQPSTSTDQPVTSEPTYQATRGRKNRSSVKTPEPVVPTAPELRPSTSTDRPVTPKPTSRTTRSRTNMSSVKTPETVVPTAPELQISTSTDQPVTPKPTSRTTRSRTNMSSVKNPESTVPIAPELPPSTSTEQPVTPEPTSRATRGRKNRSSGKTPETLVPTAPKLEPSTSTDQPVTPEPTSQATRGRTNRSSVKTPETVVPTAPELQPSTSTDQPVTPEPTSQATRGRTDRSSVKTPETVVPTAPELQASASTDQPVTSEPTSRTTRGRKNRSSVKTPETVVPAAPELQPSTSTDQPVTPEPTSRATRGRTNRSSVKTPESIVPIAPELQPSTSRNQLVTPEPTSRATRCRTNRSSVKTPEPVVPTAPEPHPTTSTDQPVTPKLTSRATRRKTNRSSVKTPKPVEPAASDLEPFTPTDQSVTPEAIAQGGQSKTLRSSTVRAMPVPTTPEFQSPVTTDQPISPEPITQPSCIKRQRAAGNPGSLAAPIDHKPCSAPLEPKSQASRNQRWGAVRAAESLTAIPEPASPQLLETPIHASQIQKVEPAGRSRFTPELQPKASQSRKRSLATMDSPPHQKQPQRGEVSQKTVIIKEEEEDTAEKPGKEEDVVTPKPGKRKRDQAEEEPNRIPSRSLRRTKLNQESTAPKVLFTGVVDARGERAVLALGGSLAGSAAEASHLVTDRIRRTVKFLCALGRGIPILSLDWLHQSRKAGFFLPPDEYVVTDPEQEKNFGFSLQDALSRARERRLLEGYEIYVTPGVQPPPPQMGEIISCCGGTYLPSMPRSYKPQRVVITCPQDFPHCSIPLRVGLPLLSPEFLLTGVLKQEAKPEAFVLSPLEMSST
K76A was tested, and the “effect of a mutation on the interaction” value was “decreasing interaction”. K45A was tested, and the “effect of a mutation on the interaction” value was “decreasing interaction”. G103D was tested, and the “effect of a mutation on the interaction” value was “decreasing interaction”.

Variants of: B2
Settings: with nbs1_schpo nbs1, O43070
MNEEEHNKSVHWSIVYRQLGNLLEQYEVEIARLKSQLVLEKKLRIQVEKELESVKTKQISSSASSKVSSNTIQELASTTDEDEIPGSDTVDEEDPSLNAPFSEKNQSVKIPPHSPTLPVQNASAFVKPISVPLGNVKEEKFLDTNPIGAESFESSDGEMHLRARSPEDMILLRETQPLAPLDINTLGVSDNRQKKGTEKKRPFEPEFLNDDVIRGNKRKALPAYECPDCQKFYELHGPVKESSVAPTWNDENRLGGGSLPNCKHQPLVQKVGRHRKLNIPKPIPNGFWESDFVD [D76A] was tested, and the “effect of a mutation on the interaction” value was “increasing interaction”.

Variants of: B3
Settings: with mdc1_human MDC1, Q14676
Target sequence in this assay (Q14676 whole entry): as the sequence (Q14676 whole entry) above
R28A was tested, and the “effect of a mutation on the interaction” value was “decreasing interaction”. For K160M, the “effect of a mutation on the interaction” value was “decreasing interaction”. With S42A the “effect of a mutation on the interaction” value was “decreasing interaction”. In the case of S42A;K160M, the “effect of a mutation on the interaction” value is reported as “disrupting interaction”.
